Earlier results as cited in US11608532B2, “Precision medicine for treating and preventing suicidality” (Indiana University Research and Technology Corporation, priority 2017, dated 2023).
Read-outs that look alike come from different tables or passages of the source.

System: individual top biomarkers for suicidality

B1: CAT-354 (antibody, chains of the INN, looked up, V domains shown)
VH: QVQLVQSGAEVKKPGASVKVSCKASGYTFTNYGLSWVRQAPGQGLEWMGWISANNGDTNYGQEFQGRVTMTTDTSTSTAYMELRSLRSDDTAVYYCARDSSSSWARWFFDLWGRGTLVTVSS
VL: SYVLTQPPSVSVAPGKTARITCGGNIIGSKLVHWYQQKPGQAPVLVIYDDGDRPSGIPERFSGSNSGNTATLTISRVEAGDEADYYCQVWDTGSDPVVFGGGTKLTVL
For B1, the “Step 6 Drugs that Modulate the Biomarker in Opposite Direction to Suicide” value (biomarker IL13 (interleukin 13)) is given as “CAT-354”.

B2: certolizumab (antibody, chains of the INN, looked up, V domains shown)
VH: EVQLVESGGGLVQPGGSLRLSCAASGYVFTDYGMNWVRQAPGKGLEWMGWINTYIGEPIYADSVKGRFTFSLDTSKSTAYLQMNSLRAEDTAVYYCARGYRSYAMDYWGQGTLVTVSS
VL: DIQMTQSPSSLSASVGDRVTITCKASQNVGTNVAWYQQKPGKAPKALIYSASFLYSGVPYRFSGSGSGTDFTLTISSLQPEDFATYYCQQYNIYPLTFGQGTKVEIK
For B2, the “TNF modulated by drug in opposite direction to suicide” value (D. Top Biomarkers in Bipolar Disorder, direction of change in suicidality (I) DE/1, (I) AP/1) is given as “certolizumab,”.

B3: siltuximab (antibody, chains of the INN, looked up, V domains shown)
VH: EVQLVESGGKLLKPGGSLKLSCAASGFTFSSFAMSWFRQSPEKRLEWVAEISSGGSYTYYPDTVTGRFTISRDNAKNTLYLEMSSLRSEDTAMYYCARGLWGYYALDYWGQGTSVTVSS
VL: QIVLIQSPAIMSASPGEKVTMTCSASSSVSYMYWYQQKPGSSPRLLIYDTSNLASGVPVRFSGSGSGTSYSLTISRMEAEDAATYYCQQWSGYPYTFGGGTKLEIK
In the case of B3, the “IL6 modulated by drug in opposite direction to suicide” value (B. Top Biomarkers in Males, direction of change in suicidality I, AP/2) is given as “siltuximab”.

B4: Siltuximab (antibody, chains of the INN, looked up, V domains shown)
VH: B3 VH
VL: B3 VL
For B4, the “Step 6 Drugs that Modulate the Biomarker in Opposite Direction to Suicide” value (biomarker IL6 (interleukin 6)) is listed as “Siltuximab”.
